The target in the test is TEA domain transcription factor 1 (TEAD1) on the HuProt Human Proteome Microarray v3.1 (human) (UniProt P28347). The test is described as follows: peptide or protein array; purified FLAG-Lamin A/C (WT or Q353R) applied to a HuProt Human Proteome Microarray v3.1; two samples each, averages of the pairs compared.

This passage reports fold affinity against WT Lamin A/C results from paper PMC10104473.

UniProt P28347, sequence (P28347 whole entry, the tested form may be a part): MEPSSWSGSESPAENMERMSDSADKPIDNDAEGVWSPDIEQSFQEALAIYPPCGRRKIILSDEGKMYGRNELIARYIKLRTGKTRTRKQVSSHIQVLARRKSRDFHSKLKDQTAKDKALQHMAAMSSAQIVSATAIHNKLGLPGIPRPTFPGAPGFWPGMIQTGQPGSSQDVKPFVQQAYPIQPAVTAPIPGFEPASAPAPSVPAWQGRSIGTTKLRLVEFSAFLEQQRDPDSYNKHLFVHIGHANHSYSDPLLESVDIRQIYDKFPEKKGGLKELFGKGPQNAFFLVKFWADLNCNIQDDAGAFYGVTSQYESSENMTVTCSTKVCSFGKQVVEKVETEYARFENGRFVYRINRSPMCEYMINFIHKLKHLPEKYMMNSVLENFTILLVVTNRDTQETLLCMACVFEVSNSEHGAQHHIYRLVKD

For “FLAG-tagged Q353R Lamin A/C (from UniProt P02545 1-646) (natural protein)”, the fold affinity against WT Lamin A/C came out at 8 fold.
